{
  "source": "patent US20160310607A1",
  "about": "“CELL TRANSPORT” (CUPID PEPTIDE COMPANY LIMITED, priority 2013, published 2016)",
  "molecules": {"B1": {"name": "Cupid B-PTEN: Cupid B fused to a 167 amino acid region (C2 region, 186-352) of human PTEN, with 6x Histidine (protein)", "chain": "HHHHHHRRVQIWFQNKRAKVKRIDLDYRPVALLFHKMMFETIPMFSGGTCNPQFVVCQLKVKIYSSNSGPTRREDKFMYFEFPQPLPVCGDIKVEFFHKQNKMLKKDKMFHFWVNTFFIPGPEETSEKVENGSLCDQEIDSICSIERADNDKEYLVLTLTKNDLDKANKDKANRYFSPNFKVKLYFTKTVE", "modifications": "FITC label", "notes": "Cupid B fused to a 167 amino acid region (C2 region, 186-352) of human PTEN, with 6x Histidine"}},
  "key": {"[1]": {"system": "Dictyostelium discoideum amoeba cells", "test": "Permeation of FITC-labelled peptides into cultured Dictyostelium cells (fluorescence microscopy)", "type": "cell-based", "conditions": "FITC-labelled peptide, 20 micromolar, 1 hour", "protocol": "Peptides were labelled with Fluorescein isothiocyanate (FITC) using a FITC labeling kit as per instructions (Pierce, UK). When added to cell cultures the labeled peptides were visualized using a fluorescent microscope by exciting the FITC with a 488 nm spectral line, argon-ion laser (Excitation wavelength of 494 nm and an Emission wavelength of 518 nm).\nAX2 wild type Dictyostelium cells were grown on SM agar plates seeded with Aerobacter aerogenes bacteria (also known as Klebsiella aerogenes) as a food source.\nCupid A ([…]) and Cupid B ([…]) were chemically synthesized labelled with FITC at the amino terminal. The peptides were added to cultured eukaryotic cells of Dictyostelium discoideum amoeba for varying amounts of time up to 2 hours. Cells were then washed and prepared for examination under a fluorescent microscope (FIG. 1). The time courses of permeation were compared to the class 3 CPP, the Antennapedia peptide, pANT which was also labelled with FITC in chemical synthesis (FIG. 2)."}, "PTEN [2]": {"system": "PTEN", "test": "Streaming and aggregation of starved wild-type Dictyostelium cultures compared with the PTEN null mutant", "type": "cell-based, Dictyostelium discoideum", "conditions": "10 micromolar, wild-type cells, visualised after 10 hours", "protocol": "FIG. 8. Cupid can transport large molecule cargo into the cell. Starved Dictyostelium cultures were plated into petri dishes in starvation buffer and visualised after 10 hours. In untreated wild-type (WT) cultures (A), cells stream together into aggregation centres, co-ordinated by cell to cell signaling.\nIn Dictyostelium, a genetic mutant in which the PTEN gene is absent causes marked changes in phenotype."}, "PTEN [3]": {"system": "PTEN", "test": "Inositol phospholipid levels in starving Dictyostelium cells (solvent extraction, thin layer chromatography)", "type": "cell-based, Dictyostelium discoideum", "conditions": "10 micromolar, 1 hour, starving wild-type Dictyostelium", "protocol": "FIG. 9. The levels of the 4 inositol phospholipids (PI, PIP, PIP2 and PIP3) in wild-type Dictyostelium cells undergoing starvation were measured by solvent extraction of cell cultures and analysis using thin layer chromatography. The effect of Cupid B-PTEN peptide treatment (10 micromolar, 1 hour) was calculated as a percentage change in the basal (untreated) levels.\nThe PTEN protein has a phospholipase enzymatic activity that functions to remove phosphate groups from inositol-based lipids and as such is involved with maintaining the balance between varieties of inositol phospholipids present at the cell surface. In wild-type cells undergoing starvation the inositol phospholipids with 3 and 4 phosphate groups (PIP2 and PIP3) are kept low, largely due to the action of PTEN.\nWe determined the effect of Cupid B-PTEN peptide on the inositol phospholipid levels in Dictyostelium cultures. Cupid B-PTEN peptide treated cells (10 micromolar, 1 hour) alters the basal levels of inositol phospholipids in Dictyostelium cells."}, "PTEN [4]": {"system": "PTEN", "test": "Protein phosphorylation response to cyclic AMP in starving Dictyostelium cultures (antibody detection on SDS gels)", "type": "cell-based, Dictyostelium discoideum", "conditions": "pre-treated for 1 hour with 10 micromolar peptide", "from_the_text": "FIG. 10. In starving Dictyostelium cultures, several proteins undergo rapid phosphorylation/dephosphorylation events in response to an applied dose of cyclic AMP. The strength of this response is limited by PTEN enzyme activity. This response is visualised with antibody detection of these phosphoproteins on SDS gels prepared from extracted cultures at the time points indicated after the cAMP dose.\nIn starving Dictyostelium cultures, several proteins undergo rapid phosphorylation/dephosphorylation events in response to an applied dose of cyclic AMP. The strength of this initial phosphorylation response is limited by PTEN enzyme activity and is associated with changes in PIP2 and PIP3 inositol phospholipid levels."}},
  "data": [
    {"molecule": "B1", "values": [
      {"measurement": "cell permeation (fluorescence microscopy)", "setting": "[1]", "value": "cell permeable"},
      {"measurement": "streaming/aggregation behaviour of starved wild-type Dictyostelium", "setting": "PTEN [2]", "value": "exhibit the same distinctive behaviour as the PTEN-Null strain"},
      {"measurement": "streaming/aggregation behaviour of starved wild-type Dictyostelium", "setting": "PTEN [2]; listed as Cupid-PTEN", "value": "cells failed to stream together or aggregate"},
      {"measurement": "change of PIP2 level relative to untreated basal level", "setting": "PTEN [3]", "value": "+75%"},
      {"measurement": "change of PIP3 level relative to untreated basal level", "setting": "PTEN [3]", "value": "+150%"},
      {"measurement": "initial phosphorylation response to cyclic AMP versus untreated cultures", "setting": "PTEN [4]", "value": "much stronger initial phosphorylation response"},
      {"measurement": "initial phosphorylation response to cyclic AMP versus untreated cultures", "setting": "PTEN [4]; listed as Cupid-PTEN", "value": "much greater phosphorylation response"}
    ]}
  ]
}
